Assay: soluble on expression in E. coli; label from the status in PepcDB or PDB records
With “GPGSMSSSNAQAELGPGGSTHSIELGRLIFQGAESKVYCCSFYGALALCKHRFVKRYRDPSLDERLRTQRTRREARALERCVKKGIRAPRLLGADYINTFLVMSYEAGPTVKEALDIEHAAYMQQVSKGKSTSAQQQQPQTTPSPSALGNAAPSPVTAALLQSIGVVVARLHNANIVHGDLTTSNFICTCDGLEAAAPGADGADALASSSPVLPTAEDIVVLDFGLISEKYSTEERAVDLYVLERAIASTHPYLSSFASDIILEGYRSAADPKKGEEALRRLEAVRARGRKRTMIG” the “soluble on expression in E. coli” value was “not soluble”. With “GPGSMSVKETTIALPLMVESVLDVDSGITATSAISVLDDRAVLIGTSEGSILLCAPVNESAHVLTPYSDTTLHCGAIYDLAVSSDHLVATAGHDAVSCVFPLHTFFRASGVRQCRRITGHTVPVVAVRFLSDGTSLVTLGADGRVLVAEVHSGHVLASLLCGFAATCLACSMDETQLFVGGRSLASIDLHHAMRPMSLQSVAAAASGPDPWASLSSAAAAPGAAASLRTPAWLRLYAWEEKSEATAGASRRQFRAPPHTFIRSLSVDSRDGALTATFARHAGGTSSVEVCGSARWAATGGRTASEATWAPQALQGVSAALRYPMSRDRSTGVATGKLRVRCRVKASARPSAKQTPAPPGSFASTAAALWNGRWYASPFELAGGTPRLTASHGLAETSVFTAEKSDQYGFPSAGPRTPAEELLIAQAQCDELQRECDALVFQIKSFLARKAPIR” the “soluble on expression in E. coli” value was “not soluble”. With “GPGSMTDRLTAEDVFYELSTIRDPERPDCTLADLDVVAMNRCRVEYIESSADFQSLRGQGCNDSGKPSVVVKVILQPTVPHCSLMEFICLCVYVRLREVFSLSNNAKFDITLVDGSHVRQRELEKQVADKERLAAAMEDKALLQEVERHINCE” the “soluble on expression in E. coli” value was “soluble”. In the case of “GPGSMTSLNTELALAKRFHMLSKNYSNRPVIARRNTLPTLVRFIRSNDRETRHYSLSALLLLAQHEENVELLCLERGLVPGVYAVYKDADYDDPQLREIADQILNCLEPVLQGRDPRKASQTSVTPVGSSSDAVDSDPLNDSFSPSRRARAGRVLRGVGSDAIHTVLLDIPALDPNGGDNIEAIEDIFQTTRGVLSYSIFVENRQARLFVTCATQVVQQVLSDSGFESVVVRDDVVNQEMFGGGADGSAGLNSGGNRSNTSYYDGGSPQHRPSYLQSVANSIYQSALVLGGGSRNNDTLSARVNEQRTREQEGESTFGYISKTLSKWW”, the “soluble on expression in E. coli” value is reported as “not soluble”. In the case of “GPGSMTTLVLCDGSEGSLRSIEVACAGNATPTSSMPSQEGSLLLLHVWDTPATRTSVLHPSVGAEGMYTPRRSVSSAAAAAAQTSADAGGHGGSSMPCADVLTTTLQYIHTNKYLKNKLHYTVETTCASTVFARDNTDHSVLSEAGAAPAGGTAASQAAHGRAGQGQKRASCSAGGAGSARRRSDRRPSQRQIDTAAEISAGSSNNTGDGTAPERQEAPVSIPENEKRAMAVVKYATARAAHHHVTAVLLGVGQRQDGKVCTVGAVAQGVLLELRSLYPLYYVKKDGVKWRPALSTTTTTTAATPRRFTIVVAVPADARWESATAAETRSGNEEAAAQTTASIETPSVAPPQVPIHVQEAVAATVQYVQTRCMRLHAALQVEQITFAVIATSSSQDGNSITEPDRGENGGHVAAGPDASGGKDGSTWISPLEAYKRHLESLPFVECKSIPPANAAAPLLSPVNRINPAAVGETGGIEQHLPEDGAAMMCVEGSATGAPAPRGAASPVAVCVLKASKKNPLLSLDSEPEVALPQIIKQVGSLKPEVLVMPKSLVPESLQLALLATSNPHCIVLPF”, the “soluble on expression in E. coli” value is reported as “soluble”. In the case of “GPGSMVDVIIYTRPGCPYCARAKALLARKGAEFNEIDASATPELRAEMQERSGRNTFPQIFIGSVHVGGCDDLYALEDEGKLDSLLKTGKLI”, the “soluble on expression in E. coli” value is reported as “soluble”. With “GPGSMWGPNQEVAHPRHDGKSFYLPSTSAAGAAALGASLLPHSNLVCAPLNPHIAREPVDTATGDGDGTVRALLTRFRIENERLRDQVKAHVVQEALLTQRLQELSARNTALHLQDFRKRDNDAVVEKLKKQLEVKEMEVRALQLQVGELNGRISAYEEAISRPDHPQGLSANSMDRVRELICEALSSAGFLTRVANAVEHCHPSTHEVTDCPRSVEECTNHCLQAAMRGNKELPGETAARGHHVSCEELASALREEVLFCETVAVRVAAKLFMERSSADSSAKADRGTGLQHQEESAPPLARPTAECPAEAHELPQSDRRPRRKPAARPTVEDCEVQ” the “soluble on expression in E. coli” value was “not soluble”. For “GPGSMYHGNGSVNDAADASFCPQPSPTRPSREAPPSAPPPTGRVTRTQALARLLRGEGSSTHTKPVRAPGNDAKELKVSETRKECVVGEVQADAPPKKSEGTSSHAAVPLAASATITPDDRDDIGAALQEIGDASRRHRRHSHDAEGTSGDAVRDDASDGGAANMSDDYNGDDNSESTCSARRSGAGSAPAEGFSAHPTHARARGRAVSTRQAANALPRMLALQRSFEAEAKHLYEYCGTHVVEWPTLAVEWIPDRAFVDPERDYTLQYLAIGTQAHPLSGAANAVKVMEVAVPVTAAKDVMYGLYGDDDTAGVEAVDPAREGGIDPGKRFANVKGHFHCEQTLTMDAAVLKIRAMPAETNVIAVKTASGFIGVYNLLQDLTQNEAGRTVPDALLCGHRRGGFGLSWNALKPGFIASAADDGYVNYYDVSHRLTIDVREASDVDPALTGPETQPLERLVGHRDIVTDCCWHSSQGHLLASSSMDGDARLWDIRMSAGSSTIPSAHASGATAAQFHPIGAFQLATAGAEGSISLWDIRRTADPVWELNYHGRPITGLQWSPFCETVMLSYGADGRVVLWDLAKTTLPLGYSEDQLAPPEVSFVHIGHVGRVTDASWNSSTTEEWLLASADTTNGVHVYRPLVNVVQDYRAYQH”, the “soluble on expression in E. coli” value was “not soluble”. For “GPKDNNKTLKPAIAEYIVKKAKQRIALQRWQDELNRRKNHKGMIFVENTVDLEGPPSDFYYINEYKPAPGISLVNEATFGCSCTDCFFQKCCPAEAGVLLAYNKNQQIKIPPGTPIYECNSRCQCGPDCPNRIVQKGTQYSLCIFRTSNGRGWGVKTLVKIKRMSFVMEYVGEVITSEEAERRGQFYDNKGITYLFDLDYESDEFTVDAARYGNVSHFVNHSCDPNLQVFNVFIDNLDTRLPRIALFSTRTINAGEELTFDYQMKGSGDISSDSIDHSPAKKRVRTVCKCGAVTCRGYLN”, the “soluble on expression in E. coli” value was “soluble”. With “GPLGSCDSGTGLTGNYSQDTLTVIATLREAIDLPQDAPNRQEVQDTARGQINDYISRYRRKGDAGGLKSFTTMQTALNSLAGYYTSYGARPIPEKLKKRLQLEFTQAERSIERGV” the “soluble on expression in E. coli” value was “soluble”. For “GPLGSMSAAIAKPSAKPSAHVDPKSAPLKEIPDVLVDPRTMKRYMRGRFLGKGGFAKCYEITDMDTKEVFAGKVVPKSMLLKPHQKEKMSTEIAIHKSLDNPHVVGFHGFFEDDDFVYVVLEICRRRSLLELHKRRKAVTEPEARYFMRQTIQGVQYLHNNRVIHRDLKLGNLFLNDDMDVKIGDFGLATKIEFDGERKKTLCGTPNYIAPEVLCKKGHSFEVDIWSLGCILYTLLVGKPPFETSCLKETYIRIKKNEYSVPRHINPVASALIRRMLHADPTLRPSVAELLTDEFFTSGYAPMRLPTSCLTVPPRFS”, the “soluble on expression in E. coli” value was “soluble”. In the case of “GPLGSQELRLRVQGKEKHQMLEISLSPDSPLKVLMSHYEEAMGLSGHKLSFFFDGTKLSGKELPADLGLESGDLIEVWG”, the “soluble on expression in E. coli” value is reported as “soluble”. For “GPSSPAGGEARVHVLVLSSWRSGSSFVGQLFNQHPDVFYLMEPAWHVWTTLSQGSAATLHMAVRDLVRSVFLCDMDVFDAYLPWRRNLSDLFQWAVSRALCSPPACSAFPRGAISSEAVCKPLCARQSFTLAREACRSYSHVVLKEVRFFNLQVLYPLLSDPALNLRIVHLVRDPRAVLRSREQTAKALARDNGIVLGTNGTWVEADPGLRVVREVCRSHVRIAEAATLKPPPFLRGRYRLVRFEDLAREPLAEIRALYAFTGLSLTPQLEAWIHNITHGSGPGARREAFKTSSRNALNVSQAWRHALPFAKIRRVQELCAGALQLLGYRPVYSEDEQRNLALDLVLPRGLNGFTWASSTASHPRN”, the “soluble on expression in E. coli” value was “soluble”. For “GQSAKEAIEAANADFVKAYNSKDAAGVASKYMDDAAAFPPDMARVDGRQNIQKLWQGAMDMGISELKLTTLDVQESGDFAFESGSFSLKAPGKDSKLVDAAGKYVVVWRKGQDGGWKLYRDIWNSDPAK”, the “soluble on expression in E. coli” value was “soluble”. In the case of “GQVIARHKVREFNINPVNTPTKSKLHPSVFYDVFPGDKEPAVLSDNDPRLEVKLTESLFSKYKGNVNTEPTENMLVAVDHYAGQLLSLDIPTSELTLKEALYGVDGLEPIDITTSAGFPYVSLGIKKRDILNKETQDTEKMKFYLDKYGIDLPLVTYIKDELRSVDKVRLGKSRLIEASSLNDSVNMRMKLGNLYKAFHQNPGVLTGSAVGCDPDVFWSVIPCLMDGHLMAFDYSNFDASLSPVWFVCLEKVLTKLGFAGSSLIQSICNTHHIFRDEIYVVEGGMPSGCSGTSIFNSMINNIIIRTLILDAYKGIDLDKLKILAYGDDLIVSYPYELDPQVLATLGKNYGLTITPPDKSETFTKMTWENLTFLKRYFKPDQQFPFLVHPVMPMKDIHESIRWTKDPKNTQDHVRSLCMLAWHSGEKEYNEFIQKIRTTDIGKCLILPEYSVLRRRWLDLFHHHHHH”, the “soluble on expression in E. coli” value is reported as “soluble”. For “GRISMTVKKLYFIPAGRCMLDHSSVNSALTPGKLLNLPVWCYLLETEEGPILVDTGMPESAVNNEGLFNGTFVEGQILPKMTEEDRIVNILKRVGYEPDDLLYIISSHLHFDHAGGNGAFTNTPIIVQRTEYEAALHREEYMKECILPHLNYKIIEGDYEVVPGVQLLYTPGHSPGHQSLFIETEQSGSVLLTIDASYTKENFEDEVPFAGFDPELALSSIKRLKEVVKKEKPIIFFGHDIEQEKSCRVFPEYI”, the “soluble on expression in E. coli” value was “soluble”. For “GRRIQGQRRGRGTSTFRAPSHRYKADLEHRKVEDGDVIAGTVVDIEHDPARSAPVAAVEFEDGDRRLILAPEGVGVGDELQVGVDAEIAPGNTLPLAEIPEGVPVCNVESSPGDGGKFARASGVNAQLLTHDRNVAVVKLPSGEMKRLDPQCRATIGVVGGGGRTDKPFVKAGNKHHKMKARGTKWPNVRGVAMNAVDHPFGGGGRQHPGKPKSISRNAPPGRKVGDIASKRTGRGGNE”, the “soluble on expression in E. coli” value was “soluble”. In the case of “GSEDFTFDGTKRLSVNYVKGILQPTDTCDIWDKIWNFQAKPDDLLISTYPKAGTTWTQEIVELIQNEGDVEKSKRAPTHQRFPFLEMKIPSLGSGLEQAHAMPSPRILKTHLPFHLLPPSLLEKNCKIIYVARNPKDNMVSYYHFQRMNKALPAPGTWEEYFETFLAGKVCWGSWHEHVKGWWEAKDKHRILYLFYEDMKKNPKHEIQKLAEFIGKKLDDKVLDKIVHYTSFDVMKQNPMANYSSIPAEIMDHSISPFMRKGAVGDWKKHFTVAQNERFDEDYKKKMTDTRLTFHFQF”, the “soluble on expression in E. coli” value is reported as “soluble”. For “GSHMAPDCSQPLDVILLLDGSSSFPASYFDEMKSFAKAFISKANIGPRLTQVSVLQYGSITTIDVPWNVVPEKAHLLSLVDVMQREGGPSQIGDALGFAVRYLTSEMHGARPGASKAVVILVTDVSVDSVDAAADAARSNRVTVFPIGIGDRYDAAQLRILAGPAGDSNVVKLQRIEDLPTMVTLGNSFLHKLCSG”, the “soluble on expression in E. coli” value was “soluble”. With “GSHMASDLLELTEDMEKEISNALGHGPQDEILSSAFKLRITRGDIQTLKNYHWLNDEVINFYMNLLVERNKKQGYPALHVFSTFFYPKLKSGGYQAVKRWTKGVNLFEQEIILVPIHRKVHWSLVVIDLRKKCLKYLDSMGQKGHRICEILLQYLQDESKTKRNSDLNLLEWTHHSMKPHEIPQQLNGSDSGMFTCKYADYISRDKPITFTQHQMPLFRKKMVWEILHQQLL” the “soluble on expression in E. coli” value was “soluble”.
